We go through one substance from article PMC3944073.

For this experiment, the target named is GFP-β-DGNLS fusion protein. As to the kind of experiment: AlphaScreen or HTRF; ALPHAScreen; His6-tagged GFP-β-DG-NLS at a fixed amount per well with increasing GST-ezrin, GST-IMPα2/β1 or GST alone (0-60 nM); nickel chelate acceptor beads and streptavidin donor beads; room temperature; apparent dissociation constants from sigmoidal fits. A general note: In Alpha technology, singlet oxygen from a donor bead excites a nearby acceptor bead.

Consider “GST-ezrin (mouse) (from UniProt P26040 1-586) (natural protein)”, for which the Kd was determined as 2.22 nM.
